Results as given in PMC4383587, “The Evolutionary Origination and Diversification of a Dimorphic Gene Regulatory Network through Parallel Innovations in cis and trans”.

B1: Motif 4 (t_MSE2 site S4, Probe 5) (dsDNA)
DNA 1: ATGTATACTAATTAGACAGTCTCTTTTTTT
DNA 2: AAAAAAAGAGACTGTCTAATTAGTATACAT
B2: Motif 5 (t_MSE2 site S5, Probe 6) (dsDNA)
DNA 1: TTTTTATTACTTCAACTATTCAAATTT
DNA 2: AAATTTGAATAGTTGAAGTAATAAAAA
B3: Motif 3 (t_MSE2 site S3, Probe 4) (dsDNA)
DNA 1: GAGAATTCAAGATCATAATATGTATACTAA
DNA 2: TTAGTATACATATTATGATCTTGAATTCTC

Target: GST-Abd-A DBD (Drosophila melanogaster, UniProt P29555-2 136-209)
Assay: EMSA; 50 mM HEPES pH 7.9, 100 mM KCl, 1 mM DTT, 12.5 mM MgCl2, 0.05 mM EDTA, 17% glycerol, 400 ng/ul poly(dI-dC), 20 fmol probe, 0-3000 ng protein, 30 min on ice
Conditions: protein: recombinant; tags: N-terminal GST (pGEX4T1); label: 3' biotin on each strand; blunt

Sequence of GST-Abd-A DBD (P29555 396-469): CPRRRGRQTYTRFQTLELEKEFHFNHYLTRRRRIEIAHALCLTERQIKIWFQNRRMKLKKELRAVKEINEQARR

Binding result, binds:
B1
B2
B3
